Results taken from article PMC6644000 (Cell, 2019).

Biological target: T1, REV1 C-terminal domain (CTD) (mouse, UniProt Q920Q2 1150-1249)
T1 sequence (looked up): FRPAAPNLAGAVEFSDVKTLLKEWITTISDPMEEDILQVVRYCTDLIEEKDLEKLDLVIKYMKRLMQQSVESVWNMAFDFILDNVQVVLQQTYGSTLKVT
Test: crystal structure

KSFFDKKRSERISN (domain or fragment, mouse, UniProt Q9QUG2 564-577, looked up) [POL κ RIR (REV1-interacting region) peptide]: binds.
